Measured values reported in patent US20230220098A1, “THERAPEUTIC DRUG FOR POLYCYTHEMIA” (PERSEUS PROTEOMICS INC., priority 2019, published 2023).

Assays:
mouse TfR = mouse TfR (Mus musculus, UniProt Q62351); assay: Cross-reactivity of TfR436 antibody with mouse TfR; format: binding
[1] = system: PV patient-derived hematopoietic stem cells; assay: EPO-independent erythroblast (BFU-E/CFU-E) colony assay; format: cell-based, human
Protocol: PV patient-derived hematopoietic stem cells are characterized in that BFU-E or CFU-E is formed in the cells even in the absence of erythropoietin (EPO). The activity of TfR436 to inhibit the formation of these colonies was examined.
The peripheral blood of a PV patient, which had been obtained by phlebotomy, was dispensed into three 50-mL centrifuge tubes in an amount of 20 mL each, and an equal amount of PBS (Gibco) was then added to each tube, followed by mixing. Thereafter, 15 mL of LymphoSep, Lymphocyte Separation Media (MP Biomedicals™) was dispensed into […] novel 50-mL centrifuge tubes, and the peripheral blood diluted with PBS was then slowly added thereto in an amount of 30 mL each, and the obtained mixture was then centrifuged at 1,500 rpm at room temperature for 30 minutes. After completion of the centrifugation, the plasma as a supernatant was removed, and a PBMC layer was collected by transfer pipetting. The collected PBMC layer was suspended in 20 mL of PBS+2% FBS (Gibco). The thus obtained suspension was further centrifuged at 1350 rpm at room temperature for 10 minutes, a supernatant was then removed, and the residue was then suspended in 1 to 5 mL of IMDM (Nacalai Tesque)+2% FBS. Using 0.2% Trypan Blue, the number of cells was counted, and the cells were adjusted to 2×10^6 cells/mL by addition of IMDM+2% FBS.
TfR436 and a human IgG1 antibody used as a negative control were each diluted with IMDM+2% FBS to an antibody concentration of […]. MethoCult™ H4534 Classic WithoutEPO (STEMCELL TECHNOLOGIES) was dispensed into seven 14-mL round bottle tubes in an amount of 3 mL each, and 300 jut of the above-prepared PBMC was then added thereto. Thereafter, an antibody-diluted solution or 3.3 μL of IMDM+2% FBS (control) was further added thereto, followed by full mixing. Thereafter, the reaction mixture was seeded on two 35-mm culture dishes in an amount of 1 mL each. This mixture was cultured at 37° C. in a 5% CO2 incubator for 14 days. After completion of the culture, the 35-mm culture dishes were observed under a microscope, and the number of the formed BFU-E or CFU-E colonies was then counted. The colony formation percentage with respect to the number of colonies obtained by a culture without addition of antibodies was then calculated.

hamster TfR = hamster TfR (Cricetulus griseus, UniProt Q07891); assay: Cross-reactivity of TfR436 antibody with hamster TfR; format: binding
hamster TfR, sequence (Q07891 whole entry): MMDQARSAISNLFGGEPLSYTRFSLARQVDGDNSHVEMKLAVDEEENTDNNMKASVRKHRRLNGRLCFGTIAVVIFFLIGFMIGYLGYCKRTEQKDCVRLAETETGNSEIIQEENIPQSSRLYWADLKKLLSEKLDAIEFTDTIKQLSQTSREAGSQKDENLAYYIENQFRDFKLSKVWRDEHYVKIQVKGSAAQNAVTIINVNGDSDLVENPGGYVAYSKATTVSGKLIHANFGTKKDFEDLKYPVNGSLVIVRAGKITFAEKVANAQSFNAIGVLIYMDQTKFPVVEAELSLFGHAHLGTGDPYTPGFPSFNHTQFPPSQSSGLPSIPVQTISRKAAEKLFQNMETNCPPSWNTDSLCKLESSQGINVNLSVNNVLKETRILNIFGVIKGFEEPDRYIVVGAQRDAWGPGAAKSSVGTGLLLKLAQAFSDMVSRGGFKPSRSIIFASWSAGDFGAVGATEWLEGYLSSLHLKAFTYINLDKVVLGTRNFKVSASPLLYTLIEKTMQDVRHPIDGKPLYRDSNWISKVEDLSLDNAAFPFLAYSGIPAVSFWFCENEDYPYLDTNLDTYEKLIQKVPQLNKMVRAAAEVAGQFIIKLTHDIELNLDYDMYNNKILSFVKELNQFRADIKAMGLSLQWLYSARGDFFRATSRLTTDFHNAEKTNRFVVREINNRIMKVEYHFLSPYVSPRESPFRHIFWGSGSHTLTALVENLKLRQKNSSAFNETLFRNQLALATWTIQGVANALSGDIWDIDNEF

mouse TfR, sequence (Q62351 whole entry): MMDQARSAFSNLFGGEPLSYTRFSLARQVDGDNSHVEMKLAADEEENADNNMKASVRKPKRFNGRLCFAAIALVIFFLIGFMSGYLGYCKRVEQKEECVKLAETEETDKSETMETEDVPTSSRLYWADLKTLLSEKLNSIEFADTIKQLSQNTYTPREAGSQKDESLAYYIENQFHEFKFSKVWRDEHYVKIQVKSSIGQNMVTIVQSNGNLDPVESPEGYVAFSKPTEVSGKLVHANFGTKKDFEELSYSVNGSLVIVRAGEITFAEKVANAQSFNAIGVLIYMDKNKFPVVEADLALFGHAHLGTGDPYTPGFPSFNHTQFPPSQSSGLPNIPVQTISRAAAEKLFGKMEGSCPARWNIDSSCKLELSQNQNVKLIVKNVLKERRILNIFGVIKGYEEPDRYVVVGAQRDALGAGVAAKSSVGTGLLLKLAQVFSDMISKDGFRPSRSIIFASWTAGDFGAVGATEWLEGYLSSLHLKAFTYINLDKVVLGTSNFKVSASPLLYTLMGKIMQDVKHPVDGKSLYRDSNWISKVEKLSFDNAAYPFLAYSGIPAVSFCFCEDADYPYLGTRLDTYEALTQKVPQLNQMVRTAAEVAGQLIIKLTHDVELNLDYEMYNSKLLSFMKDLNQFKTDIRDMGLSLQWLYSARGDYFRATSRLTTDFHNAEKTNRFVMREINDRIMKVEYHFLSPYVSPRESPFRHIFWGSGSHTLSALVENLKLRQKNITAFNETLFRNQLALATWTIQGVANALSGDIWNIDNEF

B1: TfR436: anti-human transferrin receptor antibody, VH SEQ ID NO: 7 and VL SEQ ID NO: 8, described in WO2014/073641; called PPMX-T003 in Tables 3 and 4 (antibody, listed as Homo sapiens, V domains shown)
VH: DVQLVQSGGGVVQPGRSLRLSCAASGFPFKSYGMHWVRQAPGKGLEWVAVISYDGSNKYYADSVKGRFTISRDNSKNTLYLQMNSLRGEDTAVYYCARDSNFWSGYYSPVDVWGQGTTVTVSS
VL: NFMLTQPHSVSESPGKTVTISCTRSSGSIASNSVQWYQQRPGSAPITVIYEDTQRPSGVPDRFSGSIDSSSNSASLTISGLQTEDEADYYCQSYDSAYHWVFGGGTKLAVL
cross-reactivity with mouse TfR (mouse TfR): did not cross-react
formation of erythroblast colonies ([1]; 100 ng/mL or more, 14 days, without EPO): almost completely inhibited
colony formation percentage with respect to culture without addition of antibodies ([1]; pt No. 1, 10 ng/mL): 87.1%
colony formation percentage with respect to culture without addition of antibodies ([1]; pt No. 1, 100 ng/mL): 0.0%
colony formation percentage with respect to culture without addition of antibodies ([1]; pt No. 1, 1000 ng/mL): 0.0%
colony formation percentage with respect to culture without addition of antibodies ([1]; pt No. 2, 10 ng/mL): 149.0%
colony formation percentage with respect to culture without addition of antibodies ([1]; pt No. 2, 100 ng/mL): 2.1%
colony formation percentage with respect to culture without addition of antibodies ([1]; pt No. 2, 1000 ng/mL): 0.0%
colony formation percentage with respect to culture without addition of antibodies ([1]; pt No. 3, 10 ng/mL): 91.7%
colony formation percentage with respect to culture without addition of antibodies ([1]; pt No. 3, 100 ng/mL): 0.0%
colony formation percentage with respect to culture without addition of antibodies ([1]; pt No. 3, 1000 ng/mL): 0.0%
colony formation percentage with respect to culture without addition of antibodies ([1]; pt No. 7, 10 ng/mL): 63.6%
colony formation percentage with respect to culture without addition of antibodies ([1]; pt No. 7, 100 ng/mL): 0.0%
colony formation percentage with respect to culture without addition of antibodies ([1]; pt No. 7, 1000 ng/mL): 0.0%
colony formation percentage with respect to culture without addition of antibodies ([1]; pt No. 9, 10 ng/mL): 63.3%
colony formation percentage with respect to culture without addition of antibodies ([1]; pt No. 9, 100 ng/mL): 0.0%
colony formation percentage with respect to culture without addition of antibodies ([1]; pt No. 9, 1000 ng/mL): 1.0%
colony formation percentage with respect to culture without addition of antibodies ([1]; pt No. 11, 10 ng/mL): 80.8%
colony formation percentage with respect to culture without addition of antibodies ([1]; pt No. 11, 100 ng/mL): 0.0%
colony formation percentage with respect to culture without addition of antibodies ([1]; pt No. 11, 1000 ng/mL): 0.0%
colony formation percentage with respect to culture without addition of antibodies ([1]; pt No. 13, 10 ng/mL): 35.2%
colony formation percentage with respect to culture without addition of antibodies ([1]; pt No. 13, 100 ng/mL): 23.9%
colony formation percentage with respect to culture without addition of antibodies ([1]; pt No. 13, 1000 ng/mL): 19.7%
colony formation percentage with respect to culture without addition of antibodies ([1]; pt No. 14, 10 ng/mL): 68.9%
colony formation percentage with respect to culture without addition of antibodies ([1]; pt No. 14, 100 ng/mL): 0.0%
colony formation percentage with respect to culture without addition of antibodies ([1]; pt No. 14, 1000 ng/mL): 0.0%
colony formation percentage with respect to culture without addition of antibodies ([1]; pt No. 15, 10 ng/mL): 6.7%
colony formation percentage with respect to culture without addition of antibodies ([1]; pt No. 15, 100 ng/mL): 0.0%
colony formation percentage with respect to culture without addition of antibodies ([1]; pt No. 15, 1000 ng/mL): 3.3%
colony formation percentage with respect to culture without addition of antibodies ([1]; pt No. 18, 10 ng/mL): 47.6%
colony formation percentage with respect to culture without addition of antibodies ([1]; pt No. 18, 100 ng/mL): 0.0%
colony formation percentage with respect to culture without addition of antibodies ([1]; pt No. 18, 1000 ng/mL): 0.0%
colony formation percentage with respect to culture without addition of antibodies ([1]; pt No. 20, 10 ng/mL): 143.8%
colony formation percentage with respect to culture without addition of antibodies ([1]; pt No. 20, 100 ng/mL): 0.0%
colony formation percentage with respect to culture without addition of antibodies ([1]; pt No. 20, 1000 ng/mL): 0.0%
cross-reactivity with hamster TfR (hamster TfR): exhibited cross-reactivity
